In the supplement of paper PMC10567573:

B1: TNNI2 (parent)
chain: DWRKNIEEKSGMEGRKKMFESES

Variants of: B1
Assay: protein stability index of a GFP-peptide fusion (GPS, HEK-293T) (PSI 1-6); higher = more stable
Conditions: c terminus: native
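Note: lentivirally expressed fusions sorted by FACS into six bins by GFP to DsRed ratio, PSI derived from sequencing read proportions per bin multiplied by bin number.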

Variant	protein stability index
HWRKNIEEKSGMEGRKKMFESES [D1H]	2.27
FWRKNIEEKSGMEGRKKMFESES [D1F]	1.9
WWRKNIEEKSGMEGRKKMFESES [D1W]	3.07
TWRKNIEEKSGMEGRKKMFESES [D1T]	2.37
LWRKNIEEKSGMEGRKKMFESES [D1L]	1.9
SWRKNIEEKSGMEGRKKMFESES [D1S]	1.79
AWRKNIEEKSGMEGRKKMFESES [D1A]	2.91
MWRKNIEEKSGMEGRKKMFESES [D1M]	1.57
PWRKNIEEKSGMEGRKKMFESES [D1P]	2.57
VWRKNIEEKSGMEGRKKMFESES [D1V]	2.37
QWRKNIEEKSGMEGRKKMFESES [D1Q]	2.65
CWRKNIEEKSGMEGRKKMFESES [D1C]	1.75
IWRKNIEEKSGMEGRKKMFESES [D1I]	2.63
GWRKNIEEKSGMEGRKKMFESES [D1G]	2.28
KWRKNIEEKSGMEGRKKMFESES [D1K]	2.01
RWRKNIEEKSGMEGRKKMFESES [D1R]	2.79
NWRKNIEEKSGMEGRKKMFESES [D1N]	2.79
YWRKNIEEKSGMEGRKKMFESES [D1Y]	2.24
DWRKNNEEKSGMEGRKKMFESES [I6N]	2.54
DWRKNKEEKSGMEGRKKMFESES [I6K]	2.23
DWRKNVEEKSGMEGRKKMFESES [I6V]	2.09
DWRKNPEEKSGMEGRKKMFESES [I6P]	3.72
DWRKNQEEKSGMEGRKKMFESES [I6Q]	3.26
DWRKNREEKSGMEGRKKMFESES [I6R]	2.09
DWRKNHEEKSGMEGRKKMFESES [I6H]	2.12

Variant	protein stability index
DWRKNMEEKSGMEGRKKMFESES [I6M]	2.52
DWRKNAEEKSGMEGRKKMFESES [I6A]	2.59
DWRKNGEEKSGMEGRKKMFESES [I6G]	2.41
DWRKNSEEKSGMEGRKKMFESES [I6S]	2.54
DWRKNCEEKSGMEGRKKMFESES [I6C]	2.54
DWRKNTEEKSGMEGRKKMFESES [I6T]	3.26
DWRKNYEEKSGMEGRKKMFESES [I6Y]	1.88
DWRKNIEEKPGMEGRKKMFESES [S10P]	2.52
DWRKNIEEKMGMEGRKKMFESES [S10M]	2.16
DWRKNIEEKVGMEGRKKMFESES [S10V]	1.02
DWRKNIEEKLGMEGRKKMFESES [S10L]	1.58
DWRKNIEEKEGMEGRKKMFESES [S10E]	2.28
DWRKNIEEKQGMEGRKKMFESES [S10Q]	2.97
DWRKNIEEKKGMEGRKKMFESES [S10K]	2.18
DWRKNIEEKGGMEGRKKMFESES [S10G]	2.42
DWRKNIEEKCGMEGRKKMFESES [S10C]	1.81
DWRKNIEEKRGMEGRKKMFESES [S10R]	2.55
DWRKNIEEKNGMEGRKKMFESES [S10N]	2.54
DWRKNIEEKHGMEGRKKMFESES [S10H]	2.29
DWRKNIEEKIGMEGRKKMFESES [S10I]	2.89
DWRKNIEEKTGMEGRKKMFESES [S10T]	2.47
DWRKNIEEKAGMEGRKKMFESES [S10A]	1.7
DWRKNIEEKYGMEGRKKMFESES [S10Y]	2.82
DWKKNIEEKSGMEGRKKMFESES [R3K]	2.34
DWHKNIEEKSGMEGRKKMFESES [R3H]	2.88

Variant	protein stability index
DWAKNIEEKSGMEGRKKMFESES [R3A]	2.09
DWSKNIEEKSGMEGRKKMFESES [R3S]	2.04
DWIKNIEEKSGMEGRKKMFESES [R3I]	2.19
DWEKNIEEKSGMEGRKKMFESES [R3E]	2.48
DWPKNIEEKSGMEGRKKMFESES [R3P]	1.84
DWTKNIEEKSGMEGRKKMFESES [R3T]	2.48
DWYKNIEEKSGMEGRKKMFESES [R3Y]	1.64
DWFKNIEEKSGMEGRKKMFESES [R3F]	2.06
DWLKNIEEKSGMEGRKKMFESES [R3L]	1.74
DWVKNIEEKSGMEGRKKMFESES [R3V]	2.08
DWDKNIEEKSGMEGRKKMFESES [R3D]	2.63
DWQKNIEEKSGMEGRKKMFESES [R3Q]	2.84
DWNKNIEEKSGMEGRKKMFESES [R3N]	2.48
DWGKNIEEKSGMEGRKKMFESES [R3G]	1.61
DWMKNIEEKSGMEGRKKMFESES [R3M]	3.28
DWRKNIEEDSGMEGRKKMFESES [K9D]	1.73
DWRKNIEEFSGMEGRKKMFESES [K9F]	2.44
DWRKNIEENSGMEGRKKMFESES [K9N]	2.58
DWRKNIEEWSGMEGRKKMFESES [K9W]	2.34
DWRKNIEESSGMEGRKKMFESES [K9S]	3.35
DWRKNIEECSGMEGRKKMFESES [K9C]	1.84
DWRKNIEEESGMEGRKKMFESES [K9E]	2.13
DWRKNIEEHSGMEGRKKMFESES [K9H]	2.4
DWRKNIEEISGMEGRKKMFESES [K9I]	2.39
DWRKNIEETSGMEGRKKMFESES [K9T]	2.54

Variant	protein stability index
DWRKNIEEYSGMEGRKKMFESES [K9Y]	1.93
DWRKNIEEPSGMEGRKKMFESES [K9P]	1.75
DWRKNIEELSGMEGRKKMFESES [K9L]	2.51
DWRKNIEEQSGMEGRKKMFESES [K9Q]	1.68
DWRKNIECKSGMEGRKKMFESES [E8C]	1.63
DWRKNIEPKSGMEGRKKMFESES [E8P]	3.03
DWRKNIEWKSGMEGRKKMFESES [E8W]	1.52
DWRKNIEYKSGMEGRKKMFESES [E8Y]	2.16
DWRKNIERKSGMEGRKKMFESES [E8R]	1.84
DWRKNIEKKSGMEGRKKMFESES [E8K]	2.74
DWRKNIEQKSGMEGRKKMFESES [E8Q]	2.17
DWRKNIEVKSGMEGRKKMFESES [E8V]	2.66
DWRKNIEMKSGMEGRKKMFESES [E8M]	1.5
DWRKNIENKSGMEGRKKMFESES [E8N]	3.61
DWRKNIEFKSGMEGRKKMFESES [E8F]	2.06
DWRKNIEIKSGMEGRKKMFESES [E8I]	2.41
DWRKNIEGKSGMEGRKKMFESES [E8G]	2.06
DWRKNIETKSGMEGRKKMFESES [E8T]	2.17
DWRKNIEAKSGMEGRKKMFESES [E8A]	2.2
DWRKNIEHKSGMEGRKKMFESES [E8H]	2.09
DWRKNIELKSGMEGRKKMFESES [E8L]	2.47
DWRKNIESKSGMEGRKKMFESES [E8S]	1.99
